Results as given in article PMC5518878.

Target: full-length rhodopsin of Figure 2A, fused to a TEV cleavage site and tTA (human) (UniProt P08100)
Assay: Tango assay (TEV protease proximity reporter); HTL cells co-transfected with receptor-TEV cleavage site-tTA and GRK-TEV protease fusions; luciferase reporter; vehicle or ligand overnight (ATR 10 μM for rhodopsin; paroxetine; DHE 0.1 μM, GR 127935 1 μM; SX 1 μM, ICI 118 551 1 μM); DNA amounts adjusted for similar expression

Sequence of full-length rhodopsin of Figure 2A, fused to a TEV cleavage site and tTA (human) (P08100 whole entry, the tested form may be a part): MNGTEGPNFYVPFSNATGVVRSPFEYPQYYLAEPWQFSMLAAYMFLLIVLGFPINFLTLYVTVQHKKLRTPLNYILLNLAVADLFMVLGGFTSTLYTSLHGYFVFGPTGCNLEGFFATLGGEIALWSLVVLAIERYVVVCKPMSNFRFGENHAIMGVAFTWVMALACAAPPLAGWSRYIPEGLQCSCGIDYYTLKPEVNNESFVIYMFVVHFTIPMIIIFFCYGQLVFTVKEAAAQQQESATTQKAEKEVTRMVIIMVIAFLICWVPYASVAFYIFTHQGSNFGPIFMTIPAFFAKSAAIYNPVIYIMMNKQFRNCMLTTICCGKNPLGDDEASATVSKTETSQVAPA

Row | binding capacity, percent of FL GRK1 [%] | Binder
1 | 70 | GRK1 (31-183)-TEV protease fusion (domain or fragment) RDKKYLAKLKLPPLSKCESLRDSLSLEFESVCLEQPIGKKLFQQFLQSAEKHLPALELWKDIEDYDTADNDLQPQKAQTILAQYLDPQAKLFCSFLDEGIVAKFKEGPVEIQDGLFQPLLQATLAHLGQAPFQEYLGSLYFLRFLQWKWLEAQ
2 | 70 | GRK1 (1-183)-TEV protease fusion (domain or fragment) MDFGSLETVVANSAFIAARGSFDGSSSQPSRDKKYLAKLKLPPLSKCESLRDSLSLEFESVCLEQPIGKKLFQQFLQSAEKHLPALELWKDIEDYDTADNDLQPQKAQTILAQYLDPQAKLFCSFLDEGIVAKFKEGPVEIQDGLFQPLLQATLAHLGQAPFQEYLGSLYFLRFLQWKWLEAQ
